# Measurements: patent US20250340643A1 (AstraZeneca / MedImmune, published 2025)
# T1: CTLA4 on the cells of the reporter gene bioassay (human, UniProt P16410 36-223)
# T1 sequence (looked up): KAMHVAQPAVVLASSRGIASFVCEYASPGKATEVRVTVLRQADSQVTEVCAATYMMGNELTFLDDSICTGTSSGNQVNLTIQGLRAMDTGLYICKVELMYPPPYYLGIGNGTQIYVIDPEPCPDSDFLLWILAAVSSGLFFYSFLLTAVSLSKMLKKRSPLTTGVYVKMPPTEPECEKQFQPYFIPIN
# B1: Tremelimumab, stressed starting material (low pH 2.5-3.0, 45° C., shaking) (antibody, human IgG2, kappa, V domains shown)
# VH: QVQLVESGGGVVQPGRSLRLSCAASGFTFSSYGMHWVRQAPGKGLEWVAVIWYDGSNKYYADSVKGRFTISRDNSKNTLYLQMNSLRAEDTAVYYCARDPRGATLYYYYYGMDVWGQGTTVTVSS
# VL: DIQMTQSPSSLSASVGDRVTITCRASQSINSYLDWYQQKPGKAPKLLIYAASSLQSGVPSRFSGSGSGTDFTLTISSLQPEDFATYYCQQYYSTPFTFGPGTKVEIKR
# B2: Tremelimumab, Prep SEC monomer fraction (antibody, human IgG2, kappa, V domains shown)
# VH: B1 VH
# VL: B1 VL
# B3: Tremelimumab, Prep SEC aggregate fraction (antibody, human IgG2, kappa, V domains shown)
# VH: B1 VH
# VL: B1 VL
# B4: Tremelimumab stressed at 40° C., 0 Months (fragment study) (antibody, human IgG2, kappa, V domains shown)
# VH: B1 VH
# VL: B1 VL
# B5: Tremelimumab stressed at 40° C., 3 Months (fragment study) (antibody, human IgG2, kappa, V domains shown)
# VH: B1 VH
# VL: B1 VL
# B6: Tremelimumab stressed at 40° C., 2 Months (fragment study) (antibody, human IgG2, kappa, V domains shown)
# VH: B1 VH
# VL: B1 VL
# B7: Heat-stressed Tremelimumab (40° C.), month 2 (oxidation study) (antibody, human IgG2, kappa, V domains shown)
# VH: B1 VH
# VL: B1 VL
# modifications: oxidation by peptide mapping: Trp-52 2.5%, Met-256 2.0%, Met-362 2.6%, Met-401 3.8%, Met-432 2.2%
# B8: Heat-stressed Tremelimumab (40° C.), month 0 (oxidation study) (antibody, human IgG2, kappa, V domains shown)
# VH: B1 VH
# VL: B1 VL
# modifications: oxidation by peptide mapping: Trp-52 1.8%, Met-256 1.3%, Met-362 1.6%, Met-401 1.6%, Met-432 1.2%
# B9: Heat-stressed Tremelimumab (40° C.), month 1 (oxidation study) (antibody, human IgG2, kappa, V domains shown)
# VH: B1 VH
# VL: B1 VL
# modifications: oxidation by peptide mapping: Trp-52 1.6%, Met-256 1.4%, Met-362 2.1%, Met-401 2.4%, Met-432 1.5%
# B10: Heat-stressed Tremelimumab (40° C.), month 3 (oxidation study) (antibody, human IgG2, kappa, V domains shown)
# VH: B1 VH
# VL: B1 VL
# modifications: oxidation by peptide mapping: Trp-52 4.5%, Met-256 2.5%, Met-362 3.1%, Met-401 4.3%, Met-432 2.7%
# B11: Tremelimumab incubated with 100 ppm H2O2 for 3 days (antibody, human IgG2, kappa)
# heavy: QVQLVESGGGVVQPGRSLRLSCAASGFTFSSYGMHWVRQAPGKGLEWVAVIWYDGSNKYYADSVKGRFTISRDNSKNTLYLQMNSLRAEDTAVYYCARDPRGATLYYYYYGMDVWGQGTTVTVSSASTKGPSVFPLAPCSRSTSESTAALGCLVKDYFPEPVTVSWNSGALTSGVHTFPAVLQSSGLYSLSSVVTVPSSNFGTQTYTCNVDHKPSNTKVDKTVERKCCVECPPCPAPPVAGPSVFLFPPKPKDTLMISRTPEVTCVVVDVSHEDPEVQFNWYVDGVEVHNAKTKPREEQFNSTFRVVSVLTVVHQDWLNGKEYKCKVSNKGLPAPIEKTISKTKGQPREPQVYTLPPSREEMTKNQVSLTCLVKGFYPSDIAVEWESNGQPENNYKTTPPMLDSDGSFFLYSKLTVDKSRWQQGNVFSCSVMHEALHNHYTQKSLSLSPGK
# light: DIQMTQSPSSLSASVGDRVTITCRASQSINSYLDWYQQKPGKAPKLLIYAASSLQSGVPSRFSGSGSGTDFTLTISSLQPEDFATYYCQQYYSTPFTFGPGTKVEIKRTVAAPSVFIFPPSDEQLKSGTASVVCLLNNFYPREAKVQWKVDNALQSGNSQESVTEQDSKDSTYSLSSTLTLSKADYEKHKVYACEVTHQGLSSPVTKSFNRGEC
# modifications: oxidation by peptide mapping: Met-256 68.5%, Met-362 26.5%, Met-401 55.2%, Met-432 42.1%
# B12: Tremelimumab incubated with 100 ppm H2O2 for 4 days (antibody, human IgG2, kappa)
# heavy: B11 heavy
# light: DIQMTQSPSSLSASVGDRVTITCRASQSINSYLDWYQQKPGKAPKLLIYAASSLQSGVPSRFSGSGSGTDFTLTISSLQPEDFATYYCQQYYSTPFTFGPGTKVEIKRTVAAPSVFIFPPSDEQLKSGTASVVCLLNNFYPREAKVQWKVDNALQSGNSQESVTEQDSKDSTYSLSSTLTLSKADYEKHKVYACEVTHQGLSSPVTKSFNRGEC
# modifications: oxidation by peptide mapping: Met-256 79.8%, Met-362 36.3%, Met-401 63.7%, Met-432 53.0%
# B13: Tremelimumab, photo-stressed, DP 1x ICH (antibody, human IgG2, kappa)
# heavy: B11 heavy
# light: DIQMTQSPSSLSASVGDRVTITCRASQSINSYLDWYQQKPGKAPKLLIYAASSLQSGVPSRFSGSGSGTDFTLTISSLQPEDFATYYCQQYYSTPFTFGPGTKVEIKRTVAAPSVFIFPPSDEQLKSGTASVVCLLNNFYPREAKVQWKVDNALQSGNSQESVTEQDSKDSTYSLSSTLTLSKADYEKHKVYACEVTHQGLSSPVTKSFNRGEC
# modifications: oxidation by peptide mapping: Trp-52 10.9%, Met-256 12.1%, Met-362 3.8%, Met-401 4.1%, Met-432 11.9%
# B14: Tremelimumab, photo-stress study at 2000 lux, t = 0 control (antibody, human IgG2, kappa)
# heavy: B11 heavy
# light: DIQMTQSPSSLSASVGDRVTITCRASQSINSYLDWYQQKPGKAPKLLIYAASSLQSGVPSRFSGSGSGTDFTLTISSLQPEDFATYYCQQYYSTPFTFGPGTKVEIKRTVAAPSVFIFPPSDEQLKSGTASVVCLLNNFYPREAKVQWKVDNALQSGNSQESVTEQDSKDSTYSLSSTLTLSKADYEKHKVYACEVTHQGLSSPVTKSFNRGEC
# modifications: oxidation by peptide mapping: Trp-52 0.7%, Met-256 3.3%, Met-362 1.4%, Met-401 1.6%, Met-432 1.0%
# B15: Tremelimumab, photo-stressed, DP 3x ICH (antibody, human IgG2, kappa)
# heavy: B11 heavy
# light: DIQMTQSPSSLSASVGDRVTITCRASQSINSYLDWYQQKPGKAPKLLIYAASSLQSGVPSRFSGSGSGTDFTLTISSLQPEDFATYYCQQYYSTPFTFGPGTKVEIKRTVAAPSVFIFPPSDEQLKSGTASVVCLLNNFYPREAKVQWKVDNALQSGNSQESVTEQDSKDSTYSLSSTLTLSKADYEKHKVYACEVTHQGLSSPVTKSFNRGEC
# modifications: oxidation by peptide mapping: Trp-52 36.7%, Met-256 41.9%, Met-362 12.8%, Met-401 15.8%, Met-432 34.6%
# B16: Tremelimumab, cool white light about 2000 lux for 14 days, DP (2R vial, horizontal) (antibody, human IgG2, kappa)
# heavy: B11 heavy
# light: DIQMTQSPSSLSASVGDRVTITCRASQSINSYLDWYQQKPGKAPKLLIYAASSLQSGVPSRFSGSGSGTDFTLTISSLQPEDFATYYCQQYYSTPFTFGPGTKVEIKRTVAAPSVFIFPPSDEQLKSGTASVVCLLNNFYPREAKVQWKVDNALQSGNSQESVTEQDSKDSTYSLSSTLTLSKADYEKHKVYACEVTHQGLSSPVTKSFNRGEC
# modifications: oxidation by peptide mapping: Trp-52 6.4%, Met-256 7.8%, Met-362 2.5%, Met-401 2.7%, Met-432 5.4%
# notes: also called DP (2R vial, horizontal) 14
# B17: Tremelimumab, cool white light about 2000 lux for 14 days, DP (2R vial vertical) (antibody, human IgG2, kappa)
# heavy: B11 heavy
# light: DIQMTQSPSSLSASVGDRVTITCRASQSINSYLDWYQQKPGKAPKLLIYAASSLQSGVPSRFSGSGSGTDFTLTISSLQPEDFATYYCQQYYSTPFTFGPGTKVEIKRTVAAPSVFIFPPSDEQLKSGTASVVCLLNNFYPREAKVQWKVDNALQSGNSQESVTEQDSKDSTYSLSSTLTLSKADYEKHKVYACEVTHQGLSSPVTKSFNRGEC
# modifications: oxidation by peptide mapping: Trp-52 5.4%, Met-256 7.1%, Met-362 2.2%, Met-401 2.5%, Met-432 4.7%
# B18: Tremelimumab, photo-stress study according to ICH guideline, Dark control (antibody, human IgG2, kappa)
# heavy: B11 heavy
# light: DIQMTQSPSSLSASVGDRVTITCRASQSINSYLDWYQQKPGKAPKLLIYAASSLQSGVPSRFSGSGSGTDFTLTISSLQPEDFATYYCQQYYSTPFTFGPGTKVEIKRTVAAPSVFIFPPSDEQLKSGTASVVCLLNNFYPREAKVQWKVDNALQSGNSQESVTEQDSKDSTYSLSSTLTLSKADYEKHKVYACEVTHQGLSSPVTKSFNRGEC
# modifications: oxidation by peptide mapping: Trp-52 3.3%, Met-256 2.8%, Met-362 1.3%, Met-401 1.3%, Met-432 0.6%
# Molecular target: T1, CTLA4 on the cells of the reporter gene …
# Experiment: cell-based or functional assay
row,Relative Potency (%),Binder
1,91,B1
2,98,B2
3,73,B3

# Molecular target: T1, CTLA4 on the cells of the reporter gene …
# Experiment: cell-based or functional assay
# Remark: another data set of the same source
row,Relative Potency (%) (reporter gene assay),Binder
1,95,B4
2,97,B5
3,97,B6

# Molecular target: T1, CTLA4 on the cells of the reporter gene …
# Experiment: cell-based or functional assay
# Remark: another data set of the same source
row,Relative Potency (%),Binder
1,101,B7
2,100,B8
3,112,B9
4,98,B10

# Molecular target: T1, CTLA4 on the cells of the reporter gene …
# Experiment: cell-based or functional assay
# Remark: another data set of the same source
row,Relative Potency (%),Binder
1,83,B11
2,98,B12

# Molecular target: T1, CTLA4 on the cells of the reporter gene …
# Experiment: cell-based or functional assay
# Remark: another data set of the same source
row,Relative Potency (%),Binder
1,87,B13
2,102,B14
3,59,B15
4,97,B16
5,90,B17
6,107,B18

# Molecular target: T2, recombinant FcRn (UniProt P55899 24-297; P61769 21-119, limits assumed)
# T2 construct: also called Neonatal Fc Receptor
# Experiment: SPR, recombinant FcRn immobilized on the sensor; relative to Reference Standard
# From the text: (§1) A surface plasmon resonance binding assay was used to measure FcRn binding. This method is based on the ability of the test sample to bind to recombinant FcRn that has been immobilized on an SPR sensor surface. A reference flow cell was created using the same standard amine coupling procedure without the addition of FcRn.
row,Relative FcRn Binding (%),Binder
1,28,B11
2,24,B12

# Molecular target: T2, recombinant FcRn
# Experiment: as above
# Remark: another data set of the same source
# From the text: as §1
row,Relative FcRn Binding (%),Binder
1,78,B13
2,98,B14
3,41,B15
4,92,B16
5,94,B17
6,91,B18
